± gives the half width of the 95% confidence interval.
Tests used:
[1] = folding stability dG unfold from chymotrypsin proteolysis; higher = more stable
In short: (§1)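 Designed mini-proteins with no cysteine and under 80 residues were kept only if AlphaFold2 dimer inter-PAE was above 15. In a PA-tagged cDNA display construct, they were digested with trypsin and chymotrypsin and then sequenced. K50 was inferred by Bayesian fitting of counts, and unfolding free energy was derived per protease or combined against a sequence-predicted unfolded-state K50 and a shared folded-state K50.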

[2] = folding stability dG unfold (combined trypsin and chymotrypsin); higher = more stable
In short: as §1

[3] = folding stability dG unfold from trypsin proteolysis; higher = more stable
In short: as §1

Sequence	folding stability dG unfold [1] [kcal/mol]	folding stability dG unfold [2] [kcal/mol]	folding stability dG unfold [3] [kcal/mol]
SAGGERKVKIEVMWNPDDPNYYMISVKFPGQERQFMIDPNDPERIIEFLEDLLGPGYKVDDIEIHPFRSAGG [r13_519_TrROS]	1.61 ± 0.053	1.67 ± 0.051	1.562 ± 0.012
SAGGETIPVVMYDPSTGKELTGEIPLKEALDLLAAGKKTAFIPAGGGPVKVHIEPLPDGTVLIVAESGSAGG [r13_171_TrMRF]	0.71 ± 0.021	0.636 ± 0.045	0.576 ± 0.026
SAGGETLEVKLKNGYLLRIDLETGKVEVRPLKPVKIELKIEVKPPPVEVKLEKEIKLEKKIEVKVEFSAGGS [r16_453_TrROS_Hall]	2.51 ± 0.062	2.15 ± 0.18	1.82 ± 0.19
SAGGEVEVKEITMTAEELRELIEELKKEGYLVVIENKTGEKKVIPVKEDDLKPGDEVKIRVFKLKKPSAGGS [r16_31_TrROS_Hall]	0.691 ± 0.39	0.733 ± 0.31	0.537 ± 0.14
SAGGEVKITVEKKGDGTVTVTITVKAKSLEDLLKALESLPGVEITKVEIEKDKETNEYTIRVTIKVKPSAGG [r13_796_TrROS_Hall]	4.07 ± 0.11	3.64 ± 0.15	2.67 ± 0.068
SAGGEVRIEVEIEVDPETGTVTVRAKIERDGKLFEVEMTLRVEPEEKPEKAPEVTVTVTVVFKPEGKSAGGS [r16_108_TrROS_Hall]	2.54 ± 0.076	2.78 ± 0.34	3.01 ± 0.26
SAGGFEITEEREAVKTSPPEGPLRVEERLVIEVKSEDPEKALEEAQKETGLPVEVEVDPETGSVTITVRSAG [r5_907_JUSTAS]	0.766 ± 0.11	0.448 ± 0.18	-0.523 ± 0.56
SAGGFKIERDPEDGQVTITFPMPGFGMPFRISIPYDPNGDIDVDIEPSPGMPPHHRDMIENLARELADSAGG [r13_139_TrROS]	0.281 ± 0.43	0.562 ± 0.13	0.656 ± 0.16
SAGGFKIEYTGNYYTIELPGLKIMVNPNMGMMRIKLPGNGKKITIPVPMNNWEDMLDAVKEILKELGSAGGS [r8_447_TrROS]	2.18 ± 0.099	2.56 ± 0.26	3.17 ± 0.17
SAGGFKLKIDDIEFHDDYLVIRLKIEVPVNDQTMKFELTLIIPVPPPPPPKPPVDPEEYRDPDGKWHSAGGS [r8_234_TrROS]	2.9 ± 0.062	2.63 ± 0.24	2.19 ± 0.11
SAGGFNRKVTVRVKVPATGEEFEFEFDFEGLTLEEIKRKIKEEIKKKGIVLKPDNPVVIEITDLEEDPASAG [r5_230_JUSTAS]	3.86 ± 0.21	3.98 ± 0.33	4.13 ± 0.34
SAGGGAEELAKALAEELEKEGLIKEVEVEVRVRPDGSIEVRIKVKVEPPPPPPPVTVVRDENGEERLLSAGG [r13_957_TrROS_Hall]	0.601 ± 0.12	1.11 ± 0.31	0.972 ± 0.097
SAGGGAIVRARFPRDIPELVRAYKILEAAAPDEEVTLLLPEKPVVVVRREKVGDYFLLEVRLPEDLLSAGGS [r16_404_TrMRF]	0.546 ± 0.15	0.609 ± 0.12	0.647 ± 0.2
SAGGGALSPEEALGKPVTALVEVGGKPYLATYTLKPTPDGWLLEVTVYDPSTGTPTTRTLDWDDVEFESAGG [r13_289_TrMRF]	2.232 ± 0.022	1.87 ± 0.04	1.09 ± 0.025
SAGGGAMHTVTITDEAGNVTTFTLPTDLDTLKEKIKELFPEKKYEIKKVTRVPGNPGLTTITVKVPKDSAGG [r13_832_JUSTAS]	1.89 ± 0.064	1.68 ± 0.11	1.28 ± 0.039
SAGGGASLNSIKISKIPGLNKYKITLPTSAAPGTEVTITINNPKGKETLTFTLPVKPLPGNTVVLLLSAGGS [r8_195_JUSTAS]	1.74 ± 0.059	1.74 ± 0.066	1.46 ± 0.045
SAGGGEYKVEVVTFPDGSKVVLVTLPNGDKVALPVPVTRTVPVLDKTGPLKKPGPVEVAALVLVSSNGSAGG [r13_236_TrMRF]	1.17 ± 0.12	0.956 ± 0.076	0.636 ± 0.035
SAGGGFDLEFVTPDGRRIRVEVKRILSYDPEKGYLVMEVKVTIYHPDKPIEIDGIIVFPPGFPPGAGGSAGG [r13_823_TrMRF]	4 ± 0.17	3.85 ± 0.12	3.6 ± 0.13

Sequence	folding stability dG unfold [1] [kcal/mol]	folding stability dG unfold [2] [kcal/mol]	folding stability dG unfold [3] [kcal/mol]
SAGGGGSTTQPQQVELPGDRTATVTLHTHGDTPTATITLSEKESELGTVTVPVASTAEVAAAVAALASAGGS [r16_55_JUSTAS]	0.683 ± 0.029	0.973 ± 0.097	1.26 ± 0.028
SAGGGIVEKIKKIIKEAGYKAKVEESEDGIHIVVEAPIEAGKVLEKKIKEATGKEIKIEYVPPGKGASAGGS [r16_514_TrMRF]	3.54 ± 0.25	3.25 ± 0.16	2.21 ± 0.19
SAGGGKKNKIVAVDEEGNEIVFDIDADIDTVFEAIKKLFPNKEIEVDEVIEFEGYPDYVVVFVKIPKKSAGG [r13_832_TrMRF]	2.59 ± 0.069	2.22 ± 0.22	1.72 ± 0.14
SAGGGKPVNILIKKPNEIKIIPIPVVKIEPLESPDKLYIIFEDGYIMEFDPKTLELLSIEKVKPIEEASAGG [r13_636_TrMRF]	1.94 ± 0.066	1.69 ± 0.3	1.35 ± 0.11
SAGGGKTVVTTTPDGRTVVAAELPDGSVVAVATFPDAPVLATYNPETKTVTVAFFKGGKLVATASDSSSAGG [r13_748_TrMRF]	0.855 ± 0.11	0.837 ± 0.13	0.698 ± 0.062
SAGGGLIRDAIENNPELRELLKEGYVLYVTYPDGKSGVIEINNASASEIDDAIRAHFPGEVELEFGSSAGGS [r16_655_TrMRF]	0.389 ± 0.048	0.752 ± 0.046	1.04 ± 0.028
SAGGGMAPDTPVTVRIEITLPDGTRRVLDIPGRAGDPALLEAIAAELREEGYEVREIRPVEGRIVVASAGGS [r8_497_JUSTAS]	2.81 ± 0.08	2.53 ± 0.081	1.96 ± 0.028
SAGGGMEPKPVEVTLTIPKGTVTPEDKVPVSTIAKLLGIPEDTEVTVEKITPVPNSDTELVTLTIVTSAGGS [r16_165_JUSTAS]	0.571 ± 0.074	0.615 ± 0.12	0.412 ± 0.023
SAGGGMIERYDGKIVIKLKGPNGKEWTSTTEPLPDGTARITVTHPDKVLYLEHTPEGISVVSEVSNEKSAGG [r13_619_JUSTAS]	-0.426 ± 0.45	-0.411 ± 0.22	-0.757 ± 0.33
SAGGGMMTVTVTRVEREKPAGDEYLEKVLVTLPDSTLEATLTLKEKEEADKPPSVTVVPLEAVLALLASAGG [r13_540_JUSTAS]	-0.274 ± 0.31	0.57 ± 0.11	0.927 ± 0.019
SAGGGMPTSIVLPLTVSPENVEEAIAALKAQLEAQGYTLLEVNPVKDGNTWKLRAVFRAPDGTLVTDESAGG [r13_421_JUSTAS]	3.313 ± 0.017	3.26 ± 0.059	3.11 ± 0.079
SAGGGMRAVEVTVTLTVPSSTSVEEAVERVKAEFEAAGLEAEPVSVTVTPVPGSVTVTVRLRVLRPPASAGG [r13_351_JUSTAS]	3.48 ± 0.049	3.19 ± 0.063	2.31 ± 0.04
SAGGGMSEEYVKKLFESLGFTKLETREYPGLKVTTFSAKDLTVVAYPDGTIEIFDKNGNLIKTDKGLSAGGS [r8_147_JUSTAS]	1.82 ± 0.03	1.54 ± 0.049	1.06 ± 0.021
SAGGGMSGKAISEEEIEALIKEEAEKRGLKIEIKEITRPPGTVTVTVKITEGDSVTEKTIDFPILPEPSAGG [r13_652_JUSTAS]	1.64 ± 0.054	1.59 ± 0.06	1.54 ± 0.039
SAGGGMTTTTVTVTLDVPPDAGEEEVERLAEEIAAELKAAHPNITVTVEKITIDEKNATFTITVTTPGSAGG [r13_805_JUSTAS]	2.928 ± 0.029	3.03 ± 0.058	3.19 ± 0.096
SAGGGMTVTRTIYLPNMTEEEKKALAEEIAEEVREELEKRGYPVKEITVDVKFIPGKGIVIVTVTLKLSAGG [r13_212_JUSTAS]	3.64 ± 0.089	3.52 ± 0.055	3.29 ± 0.09
SAGGGMTVVRITHPDGTPLTIEYDPNNPVATVHFADGTTETIPMPPDKTIEDLIAKLPEDAEVEVHDRSAGG [r13_696_JUSTAS]	1.19 ± 0.026	0.847 ± 0.14	0.321 ± 0.078
SAGGGMVVYVTVPPDDPRVEELKERLAADPRVSDVTVEKVEEYPDTVRLRFTFPGDPAVVAAARALLSAGGS [r16_394_JUSTAS]	1.51 ± 0.096	1.32 ± 0.053	0.995 ± 0.059

— the supplement of paper PMC12764529
